Residue numbers refer to the chain shown, from its start.
Legend:
[1] = target: T1, MS2 bacteriophage coat protein (MS2 bacteriophage, UniProt P03612 2-130); experiment: SPR (Biacore), FIG. 2D
T1 sequence: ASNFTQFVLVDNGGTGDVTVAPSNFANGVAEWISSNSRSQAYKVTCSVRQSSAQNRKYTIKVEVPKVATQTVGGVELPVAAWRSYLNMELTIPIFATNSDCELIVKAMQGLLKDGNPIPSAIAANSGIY

[2] = target: T1, MS2 bacteriophage coat protein; experiment: SPR (Biacore T200), MS2 immobilised on CM5 chip, scFv in solution
Experimental: (§1) Binding affinity measurements for the antibody variants were obtained by surface immobilization of antigen. Specifically, kinetic analysis was performed using a Biacore T200 (GE Healthcare, Waukesha, Wis.). […] For full-length IgGs, a capture assay was used to allow accurate assessment of antibody affinity. […] Surfaces were regenerated using 3 M MgCl₂. Association and dissociation kinetic values (kₐ and kd) were determined from a best fit of the data with the 1:1 Langmuir global fitting procedure to sensorgrams using the Biacore T200 Evaluation Software, version 1.0.

[3] = target: T1, MS2 bacteriophage coat protein; experiment: SPR (Biacore), FIG. 2C
[4] = target: T1, MS2 bacteriophage coat protein; experiment: SPR (Biacore T200), IgG captured on anti-human IgG Fc, MS2 antigen flowed over
Experimental: as §1

[5] = target: T1, MS2 bacteriophage coat protein; experiment: SPR (Biacore), FIG. 3D
[6] = target: T1, MS2 bacteriophage coat protein; experiment: SPR (Biacore)
[7] = target: T1, MS2 bacteriophage coat protein; experiment: SPR (Biacore), FIG. 7C

B1: mouse anti-MS2 scFv (scFv)
scFv: EVKLVESGGGLVKPGGSLKLSCAASGFTFSSYAMSWVRQTPEKRLEWVATISTGGGYTYFPDSVKGRFTISRDNAKNALYLQMKSLRSEDTAMYYCARQGDFGDWYFDVWGAGTTVTVSSGGGGSGGGGSGGGGSDVLMTQTPLSLPVSLGDQASISCRSSQSLVHSNGNTYLHWYLQKPGQSPKLLIYKVSNRFSGVPDRFSGSGSGTDFTLKISRVEAEDLGVYFCSQSTHVPWTFGGGTKLEIK
What does the source list for B1?
koff [1]: 0.008 s⁻¹; kon [1]: 280000 M⁻¹ s⁻¹; Kd [2]: 29 nM

B2: APE443 (antibody, V domains shown)
VH: EVQLLESGGGLVQPGGSLRLSCAASGFTFSSYAMSWVRQAPGKGLEWVSTISTGGGYTYFPDSVKGRFTISRDNSKNTLYLQMNSLRAEDTAVYYCARQGDFGDWYFDVWGAGTTVTVSS
VL: DVVMTQSPLSLPVTLGQPASISCRSSQSLVHSNGNTYLHWFQQRPGQSPRRLIYKVSNRFSGVPDRFSGSGSGTDFTLKISRVEAEDVGVYYCSQSTHVPWTFGGGTKLEIK
notes: also called initial CDR-grafted antibody; initial grafted antibody
Which results are given for B2?
Kd [3]: 170 nM; koff [3]: 0.011 s⁻¹; kon [3]: 68000 M⁻¹ s⁻¹; Kd [4]: 84 nM

B3: APE556 (antibody, V domains shown)
VH: B2 VH
VL: B2 VL with F41Y, R51L, Y92F
B3 was tested. Which koff [5] did it give?
Its koff is 0.0055 s⁻¹.

And the kon [5]?
The kon was 210000 M⁻¹ s⁻¹.

And the Kd [4]?
The Kd was 27 nM.

B4: APE565 (antibody, V domains shown)
VH: B2 VH with S49C, I70C
VL: B2 VL with F41Y, R51L, Y92F
Which results are given for B4?
Kd [4]: 7 nM; fold improvement in KD over APE556 [6]: 4 fold

B5: APE830 (antibody, V domains shown)
VH: B2 VH with A23V
VL: B2 VL with Q27E, S32T, F41Y, R51L, Y92F, H98R
With B5 as the binder, how does the Kd [4] read?
Its Kd is 1.6 nM.

B6: APE849 (antibody, V domains shown)
VH: B2 VH with F60S
VL: B2 VL with Q27E, S32T, F41Y, R51L, Y92F, H98R
B6 was tested. Which Kd [4] did it give?
Its Kd is 2 nM.

What about the “fold improvement in affinity (reference not given)” value [6] of the same binder?
The value was 40 fold.

B7: APE850 (antibody, V domains shown)
VH: B2 VH with A23V, F60S
VL: B2 VL with Q27E, S32T, F41Y, R51L, Y92F, H98R
How did the Kd [4] turn out when B7 was run?
The Kd was 0.985 nM.

And the “fold improvement in KD over the initial grafted antibody (APE443)” value [6]?
The value was 85 fold.

What about the “fold improvement in ka over the initial grafted antibody (APE443)” value [6] of the same binder?
Its value is 12 fold.

What about the “fold improvement in kd over the initial grafted antibody (APE443)” value [6] of the same binder?
Its value is 7 fold.

B8: APE1051 (antibody, V domains shown)
VH: B2 VH with A23V
VL: B2 VL with F41Y, R51L, Y92F
With B8 as the binder, how does the Kd [4] read?
The Kd was 15.1 nM.

B9: APE1052 (antibody, V domains shown)
VH: B2 VH
VL: B2 VL with Q27E, S32T, F41Y, R51L, Y92F, H98R
What does the source list for B9?
Kd [4]: 4.2 nM; fold improvement in KD over the initial grafted antibody (APE443) [6]: 20 fold

B10: APE1027 (antibody, V domains shown)
VH: B2 VH with L5V, R19I, A23V, S49C, F60S, I70C
VL: B2 VL with M4L, P12A, T14L, Q27E, S32T, F41Y, R51L, Y92F, H98R
B10 was tested. Which koff [7] did it give?
Its koff is 8.5e-05 s⁻¹.

And the kon [7]?
The kon was 97000 M⁻¹ s⁻¹.

What about the Kd [4] of the same binder?
Its Kd is 0.88 nM.
